From US20260151494A1

Key:
[1] = biological target: apical domain of CD71 (Screen 3: 'cynomolgus apical domain of human CD71') (cynomolgus (as paragraph 454 words it; ambiguous)); assay: primary ELISA
[2] = biological target: apical domain of CD71 (Screen 3: 'cynomolgus apical domain of human CD71') (cynomolgus (as paragraph 454 words it; ambiguous)); assay: primary ELISA, RLU ratio to HSA

Binder	RLU [1] [RLU]	Apical domain:HSA [2]
CD71-binding FN3 domain SEQ ID NO: 247 (designed binder) MSLPAPKNLVVSRVTEDSARLSWTAPDAAFDSFEIGYFENLYLGEAIVLTVPGSERSYDLTGLKPGTEYWVQIGGVKGGEWSAPLSAIFTT	4.45e+06	679
CD71-binding FN3 domain SEQ ID NO: 248 (designed binder) MSLPAPKNLVVSRVTEDSARLSWTAPDAAFDSFEIGYFENLYLGEAIVLTVPGSERSYDLTGLKPGTEYVVFIGGVKGGDFSPPLSAIFTT	5.12e+06	550
CD71-binding FN3 domain SEQ ID NO: 250 (designed binder) MSLPAPKNLVVSRVTEDSARLSWTAPDAAFDSFEIGYFENLYLGEAIVLTVPGSERSYDLTGLKPGTEYWVQIGGVNGGNWSAPLSAIFTT	5.11e+06	211
CD71-binding FN3 domain SEQ ID NO: 251 (designed binder) MSLPAPKNLVVSRVTEDSARLSWTAPDAAFDSFEIGYFENLYLGEAIVLTVPGSERSYDLTGLKPGTEYWVQIGGVKGGNWSAPLVATFTT	5.1e+06	903
CD71-binding FN3 domain SEQ ID NO: 249 (designed binder) MSLPAPKNLVVSRVTEDSARLSWTAPDAAFDSFEIGYWENAYRGEAIVLTVPGSERSYDLTGLKPGTEYVVFIGGVKGGVWSVPLSAIFTT	4.81e+06	556
CD71-binding FN3 domain SEQ ID NO: 246 (designed binder) MSLPAPKNLVVSRVTEDSARLSWTAPDAAFDSFEIAYQELSLWGEAIVLTVPGSERSYDLTGLKPGTEYYVHIGGVKGGIWSSPLSAYFTT	6.18e+06	609

The next lines start with the values.

RLU [1] [RLU]	Apical domain:HSA [2]	Binder
4.92e+06	399	CD71-binding FN3 domain SEQ ID NO: 256 (designed binder) MSLPVPKNLVVSRVTEDSARLSWTAPDAAFDSFEIGYFENLYLGEAIVLTVPGSERSYDLTGLKPGTEYWVQIGGVKGGNWSAPLSAIFTT
5.41e+06	131	CD71-binding FN3 domain SEQ ID NO: 255 (designed binder) MSLPAPKNLVVSRVTEDSARLSWTTPDAAFDSFEIAYFEIAWLGEAIVLTVPGSERSYDLTGLKPGTEYWVQIGGVKGGAYSTPLSAIFTT
5.15e+06	687	CD71-binding FN3 domain SEQ ID NO: 257 (designed binder) MSLPAPKNLVVSHVTEDSARLSWTAPDAAFDSFEIGYWENAYKGEAIVLTVPGSERSYDLTGLKPGTEYVVFIGGVKGGVWSVPLSAIFTT
5.11e+06	448	CD71-binding FN3 domain SEQ ID NO: 254 (designed binder) MSLPAPKNLVVSRVTEDSARLSWTAPDAAFDSFEIGYFENLYLGEAIVLWVPGSERSYDLTGLKPGTEYWVQIGGVKGGNWSAPLSAIFTT
5.78e+06	530	CD71-binding FN3 domain SEQ ID NO: 253 (designed binder) MSLPAPKNLVVSRVTEDSARLSWTAPDAAFDSFDINYWENESGGEAIALFVPGSERSYDLTGLKPGTEYWVSIGGVKGGRFSEPLYARFTT
6.79e+06	302	CD71-binding FN3 domain SEQ ID NO: 258 (designed binder) MSLPAPKNLVVSRVTEDSARLSWTAPDAAFDSFFIGYLEPQPPGEAIVLGVPGSERSYDLTGLKPGTEYNVTIQGVKGGFPSDPLVASFTT
5.16e+06	411	CD71-binding FN3 domain SEQ ID NO: 259 (designed binder) MSLPAPKNLVVSRVTEDSARLSWTAPDAAFDSFYIAYAEPRPDGEAILLEVPGSERSYDLTGLKPGTEYSVLIHGVKGGLLSSPLSATFTT
4.57e+06	714	CD71-binding FN3 domain SEQ ID NO: 261 (designed binder) MSLPAPKNLVVSRVTEDSARLSWTAPDAAFDSFYIAYAEPRPDGEAILLWVPGSERSYDLTGLKPGTEYSVLIHGVKGGLLSSPLHAYFTT
